B1: BCMA-13 scFv (139112) (scFv)
scFv: QVQLVESGGGLVQPGGSLRLSCAVSGFALSNHGMSWVRRAPGKGLEWVSGIVYSGSTYYAASVKGRFTISRDNSRNTLYLQMNSLRPEDTAIYYCSAHGGESDVWGQGTTVTVSSASGGGGSGGRASGGGGSDIRLTQSPSPLSASVGDRVTITCQASEDINKFLNWYHQTPGKAPKLLIYDASTLQTGVPSRFSGSGSGTDFTLTINSLQPEDIGTYYCQQYESLPLTFGGGTKVEIK
notes: also called B13
B2: BCMA-1 CAR (139100) (other)
chain: QVQLVQSGAEVRKTGASVKVSCKASGYIFDNFGINWVRQAPGQGLEWMGWINPKNNNTNYAQKFQGRVTITADESTNTAYMEVSSLRSEDTAVYYCARGPYYYQSYMDVWGQGTMVTVSSASGGGGSGGRASGGGGSDIVMTQTPLSLPVTPGEPASISCRSSQSLLHSNGYNYLNWYLQKPGQSPQLLIYLGSKRASGVPDRFSGSGSGTDFTLHITRVGAEDVGVYYCMQALQTPYTFGQGTKLEIKTTTPAPRPPTPAPTIASQPLSLRPEACRPAAGGAVHTRGLDFACDIYIWAPLAGTCGVLLLSLVITLYCKRGRKKLLYIFKQPFMRPVQTTQEEDGCSCRFPEEEEGGCELRVKFSRSADAPAYKQGQNQLYNELNLGRREEYDVLDKRRGRDPEMGGKPRRKNPQEGLYNELQKDKMAEAYSEIGMKGERRRGKGHDGLYQGLSTATKDTYDALHMQALPPR
notes: also called ER95-03VA
B3: BCMA-15 CAR (139114) (other)
chain: EVQLVESGGGLVQPGGSLRLSCAVSGFALSNHGMSWVRRAPGKGLEWVSGIVYSGSTYYAASVKGRFTISRDNSRNTLYLQMNSLRPEDTAIYYCSAHGGESDVWGQGTTVTVSSASGGGGSGGRASGGGGSEIVLTQSPGTLSLSPGERATLSCRASQSIGSSSLAWYQQKPGQAPRLLMYGASSRASGIPDRFSGSGSGTDFTLTISRLEPEDFAVYYCQQYAGSPPFTFGQGTKVEIKTTTPAPRPPTPAPTIASQPLSLRPEACRPAAGGAVHTRGLDFACDIYIWAPLAGTCGVLLLSLVITLYCKRGRKKLLYIFKQPFMRPVQTTQEEDGCSCRFPEEEEGGCELRVKFSRSADAPAYKQGQNQLYNELNLGRREEYDVLDKRRGRDPEMGGKPRRKNPQEGLYNELQKDKMAEAYSEIGMKGERRRGKGHDGLYQGLSTATKDTYDALHMQALPPR
notes: also called B15; PY43-48LB
B4: BCMA-Fc antigen (R&D Systems) (Fc fusion)
chain: MLQMAGQCSQNEYFDSLLHACIPCQLRCSSNTPPLTCQRYCNASVTNSVKGTNA
notes: also called BCMA fc fusion protein (R&D Systems, cat #193-BC-050); recombinant BCMA-Fc; not shown: Fc portion of the bought fusion protein
B5: BCMA-15 scFv (139114) (scFv)
scFv: EVQLVESGGGLVQPGGSLRLSCAVSGFALSNHGMSWVRRAPGKGLEWVSGIVYSGSTYYAASVKGRFTISRDNSRNTLYLQMNSLRPEDTAIYYCSAHGGESDVWGQGTTVTVSSASGGGGSGGRASGGGGSEIVLTQSPGTLSLSPGERATLSCRASQSIGSSSLAWYQQKPGQAPRLLMYGASSRASGIPDRFSGSGSGTDFTLTISRLEPEDFAVYYCQQYAGSPPFTFGQGTKVEIK
notes: also called B15; BMCA-15
B6: BCMA-4 scFv (139103) (scFv)
scFv: QVQLVESGGGLVQPGRSLRLSCAASGFTFSNYAMSWVRQAPGKGLGWVSGISRSGENTYYADSVKGRFTISRDNSKNTLYLQMNSLRDEDTAVYYCARSPAHYYGGMDVWGQGTTVTVSSASGGGGSGGRASGGGGSDIVLTQSPGTLSLSPGERATLSCRASQSISSSFLAWYQQKPGQAPRLLIYGASRRATGIPDRFSGSGSGTDFTLTISRLEPEDSAVYYCQQYHSSPSWTFGQGTKLEIK
notes: also called B4

Assays:
[1] = molecular target: T1, BCMA (recombinant, form not given) (UniProt Q02223 1-54, limits assumed); assay: affinity assay (RU biosensor), 1:1 Binding fit
T1 construct: one entry is used for both; also called Bio-BCMA; BCMA substrate
T1 sequence (looked up): B4 chain

[2] = molecular target: T2, human BCMA (B-cell maturation antigen) on cells (human, UniProt Q02223 1-184); assay: cell-based or functional assay
T2 sequence (looked up): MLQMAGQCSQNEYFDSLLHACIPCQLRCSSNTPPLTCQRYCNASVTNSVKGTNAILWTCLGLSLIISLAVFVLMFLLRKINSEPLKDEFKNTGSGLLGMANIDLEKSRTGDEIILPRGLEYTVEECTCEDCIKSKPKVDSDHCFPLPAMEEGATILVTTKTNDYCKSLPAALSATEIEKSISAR

[3] = molecular target: B4; assay: flow cytometry; BCMA-Fc staining of CAR-transduced JNL cells
Protocol: Jurkat-NFAT-luciferase (JNL) cells transduced with BCMA CAR constructs were evaluated for activation in response to BCMA-expressing target cell lines. Small-scale viral supernatant samples were generated in HEK293T cells for transduction of JNL cells. On Day 3 following transduction, BCMA CAR-transduced JNL cells were incubated with target cells at an effector-to-target (E:T) ratio of 6:1. Target cell lines were: K562-BCMA (engineered to stably express BCMA), K562 (parental line), and BCMA positive multiple myeloma cell lines, NCI-H929 and RPMI 8226. JNL activation was measured using Bright-Glo substrate (Promega) on Day 4. CAR expression on transduced JNL was assessed on Day 7 with BCMA-Fc antigen and Biotin-Protein L reagent (Table 21).

BCMA-10 CAR (139109) = molecular target: T3, BCMA-10 CAR (139109); assay: flow cytometry; BCMA-Fc antigen staining of CAR-transduced SupT1 cells
T3 construct: also called B10; EG63-98LB

Row | Binder | Kd [1] [nM] | koff [1] [s⁻¹] | kon [1] [M⁻¹ s⁻¹] | JNL binding assay, ratio to K562; K562-BCMA [2] [ratio] | JNL binding assay, ratio to K562; NCI-H929 [2] [ratio] | JNL binding assay, ratio to K562; RPMI 8226 [2] [ratio] | Proliferation CD3, ratio to no target; K562-BCMA [2] [ratio] | Proliferation CD3, ratio to no target; KMS11-luc [2] [ratio] | Proliferation CD3, ratio to no target; NCI-H929 [2] [ratio] | Proliferation CD3, ratio to no target; RPMI 8226 [2] [ratio] | Proliferation CD4, ratio to no target; K562-BCMA [2] [ratio] | Proliferation CD4, ratio to no target; KMS11-luc [2] [ratio] | Proliferation CD4, ratio to no target; NCI-H929 [2] [ratio] | Proliferation CD4, ratio to no target; RPMI 8226 [2] [ratio] | Proliferation CD8, ratio to no target; K562-BCMA [2] [ratio] | Proliferation CD8, ratio to no target; KMS11-luc [2] [ratio] | Proliferation CD8, ratio to no target; NCI-H929 [2] [ratio] | Proliferation CD8, ratio to no target; RPMI 8226 [2] [ratio] | % CAR+ (BCMA-Fc detection) [3] [%] | binding result (BCMA-10 CAR (139109))
1 | B1 | 24.5 | 0.00161 | 65600 | – | – | – | – | – | – | – | – | – | – | – | – | – | – | – | – | –
2 | B2 | – | – | – | 4.6 | 4.55 | 5.06 | 1.59 | 1.38 | 4.97 | 2.96 | 1.57 | 1.24 | 5.57 | 2.43 | 1.61 | 1.56 | 4.14 | 3.58 | 72.1 | –
3 | B3 | – | – | – | 2.91 | 2.79 | 3.49 | 3.94 | 3.51 | 4.08 | 3.73 | 4.87 | 3.82 | 4.82 | 4.24 | 1.89 | 2.73 | 2.42 | 2.51 | 36.9 | –
4 | B4 | – | – | – | – | – | – | – | – | – | – | – | – | – | – | – | – | – | – | – | binds
5 | B5 | 9.3 | 0.00187 | 201000 | – | – | – | – | – | – | – | – | – | – | – | – | – | – | – | – | –
6 | B6 | 1 | 0.0006 | 617000 | – | – | – | – | – | – | – | – | – | – | – | – | – | – | – | – | –
